Measured values taken from the supplement of paper PMC9876800.

Tested on: peptide library, one residue held at a place counted from the S/T acceptor
Experiment: relative phosphorylation of the sub-library (ratio to the mean residue at this position); higher = residue favoured
Conditions: human
How it was run: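 Relative sub-library phosphorylation is a ratio to the mean residue at the same position. Purified recombinant kinases were incubated under kinase-specific conditions with biotinylated degenerate peptide sub-libraries, each fixing one residue at one position around a central Ser/Thr, using 50 μM peptide and 50 μM ATP spiked with γ-32P-ATP for 90 min. Spots captured on streptavidin membranes were phosphorimaged and quantified by densitometry.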

Chain of CDK1, construct: Full length (P06493 whole entry, looked up): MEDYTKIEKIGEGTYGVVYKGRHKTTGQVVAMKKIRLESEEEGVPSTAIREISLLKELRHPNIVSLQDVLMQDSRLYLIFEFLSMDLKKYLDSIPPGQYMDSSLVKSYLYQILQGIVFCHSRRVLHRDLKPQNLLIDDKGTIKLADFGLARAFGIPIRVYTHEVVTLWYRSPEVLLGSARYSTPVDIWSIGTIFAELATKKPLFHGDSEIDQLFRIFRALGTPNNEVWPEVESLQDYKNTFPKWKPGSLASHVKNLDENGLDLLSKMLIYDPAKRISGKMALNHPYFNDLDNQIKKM
Chain of DCLK2, construct: aa1-690 (Q8N568 1-690, looked up): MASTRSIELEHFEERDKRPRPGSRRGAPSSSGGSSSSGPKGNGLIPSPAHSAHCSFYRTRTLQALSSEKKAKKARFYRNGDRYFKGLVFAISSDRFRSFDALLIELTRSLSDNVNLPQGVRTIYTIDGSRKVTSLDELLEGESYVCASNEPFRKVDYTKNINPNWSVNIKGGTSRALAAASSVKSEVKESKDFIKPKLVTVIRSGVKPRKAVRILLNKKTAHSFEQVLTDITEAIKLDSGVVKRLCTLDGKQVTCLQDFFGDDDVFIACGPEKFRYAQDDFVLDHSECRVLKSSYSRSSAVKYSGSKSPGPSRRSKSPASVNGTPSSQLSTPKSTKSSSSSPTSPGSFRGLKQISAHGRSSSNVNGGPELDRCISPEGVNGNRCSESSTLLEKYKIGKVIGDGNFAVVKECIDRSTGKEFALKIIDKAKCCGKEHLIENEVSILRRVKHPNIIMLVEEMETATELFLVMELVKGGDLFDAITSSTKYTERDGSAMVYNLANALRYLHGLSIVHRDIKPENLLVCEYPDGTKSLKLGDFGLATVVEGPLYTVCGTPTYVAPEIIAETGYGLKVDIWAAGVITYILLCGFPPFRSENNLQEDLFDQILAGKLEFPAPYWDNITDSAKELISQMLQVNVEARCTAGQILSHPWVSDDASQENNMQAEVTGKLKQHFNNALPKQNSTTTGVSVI
Chain of RIPK3, construct: aa1-313 (Q9Y572 1-313, looked up): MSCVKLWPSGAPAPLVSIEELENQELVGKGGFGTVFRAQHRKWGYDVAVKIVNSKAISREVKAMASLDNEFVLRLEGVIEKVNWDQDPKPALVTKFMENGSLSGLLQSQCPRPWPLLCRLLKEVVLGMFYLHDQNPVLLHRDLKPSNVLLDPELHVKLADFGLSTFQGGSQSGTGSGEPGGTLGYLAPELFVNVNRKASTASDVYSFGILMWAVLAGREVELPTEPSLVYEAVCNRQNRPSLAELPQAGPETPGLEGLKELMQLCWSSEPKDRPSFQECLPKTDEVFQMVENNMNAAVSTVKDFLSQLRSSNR

CDK1, construct: Full length (from UniProt P06493)
relative phosphorylation
Conditions | at +1 | at +2 | at +3 | at +4 | at -1 | at -2 | at -3 | at -4 | at -5
A fixed | 0.334 | 1.04 | 0.598 | 0.854 | 0.927 | 1 | 0.841 | 0.996 | 1.04
D fixed | 0.205 | 0.814 | 0.505 | 0.941 | 1.21 | 1.03 | 1.26 | 1.56 | 1.55
E fixed | 0.231 | 0.724 | 0.425 | 0.786 | 0.927 | 0.898 | 1.25 | 1.38 | 1.36
F fixed | 0.187 | 0.68 | 0.396 | 0.78 | 0.639 | 0.853 | 0.825 | 0.825 | 0.882
G fixed | 0.717 | 1.13 | 0.852 | 1.1 | 1.43 | 1.29 | 1.31 | 1.14 | 1.4
H fixed | 0.244 | 1.18 | 0.907 | 1.23 | 0.744 | 0.87 | 1.01 | 0.908 | 0.893
I fixed | 0.21 | 0.694 | 0.346 | 0.758 | 0.352 | 0.669 | 0.663 | 0.654 | 0.751
K fixed | 0.331 | 1.86 | 5.37 | 1.83 | 1.65 | 0.597 | 1.01 | 0.973 | 1.11
L fixed | 0.228 | 0.752 | 0.403 | 0.792 | 0.62 | 0.89 | 0.743 | 0.69 | 0.799
M fixed | 0.24 | 0.839 | 0.423 | 0.913 | 0.85 | 1.04 | 0.761 | 0.806 | 0.759
N fixed | 0.299 | 1.19 | 0.838 | 1.12 | 1.27 | 0.803 | 1.11 | 1.01 | 0.944
P fixed | 12.4 | 1.04 | 0.999 | 1.08 | 1.61 | 3.11 | 1.84 | 1.49 | 1.16
Q fixed | 0.292 | 1.16 | 0.798 | 1.02 | 1.22 | 0.856 | 0.976 | 0.922 | 0.86
R fixed | 0.324 | 1.64 | 2.82 | 1.21 | 1.4 | 0.649 | 0.921 | 1.02 | 0.934
V fixed | 0.295 | 0.656 | 0.413 | 0.695 | 0.483 | 0.687 | 0.705 | 0.586 | 0.718
W fixed | 0.213 | 0.769 | 0.485 | 0.973 | 0.758 | 0.935 | 0.883 | 1.05 | 0.852
Y fixed | 0.202 | 0.842 | 0.415 | 0.924 | 0.897 | 0.825 | 0.893 | 0.985 | 0.99
pThr fixed | 0.851 | 1.38 | 1.59 | 0.946 | 0.621 | 1.16 | 1.3 | 1.43 | 1.74
pTyr fixed | 0.777 | 0.913 | 1.36 | 1.08 | 0.885 | 1.28 | 1.48 | 1.42 | 1.66

DCLK2, construct: aa1-690 (from UniProt Q8N568)
relative phosphorylation
Conditions | at +1 | at +2 | at +3 | at +4 | at -1 | at -2 | at -3 | at -4 | at -5
A fixed | 0.573 | 0.702 | 0.791 | 0.84 | 0.731 | 1.26 | 0.798 | 1.03 | 0.816
D fixed | 0.373 | 0.373 | 0.673 | 0.855 | 0.669 | 0.725 | 0.372 | 0.573 | 0.437
E fixed | 0.414 | 0.304 | 0.701 | 0.838 | 0.436 | 1.56 | 0.427 | 0.748 | 0.4
F fixed | 3.73 | 1.72 | 1.17 | 1.22 | 0.853 | 0.659 | 0.406 | 0.988 | 1.55
G fixed | 0.532 | 0.412 | 0.887 | 0.922 | 1.31 | 1.08 | 0.589 | 1.11 | 0.76
H fixed | 0.815 | 1.63 | 1.19 | 0.987 | 1.2 | 0.934 | 0.831 | 1 | 0.907
I fixed | 0.918 | 1.35 | 0.815 | 0.917 | 0.522 | 0.437 | 0.33 | 0.885 | 1.1
K fixed | 1.18 | 0.639 | 1.35 | 1.28 | 2.27 | 1.9 | 3.49 | 1.8 | 1.36
L fixed | 0.882 | 1.26 | 1.09 | 1.16 | 0.884 | 0.687 | 0.436 | 0.99 | 1.47
M fixed | 1.4 | 1.07 | 1.02 | 1.12 | 0.804 | 0.909 | 0.484 | 0.947 | 1.15
N fixed | 0.77 | 0.49 | 0.91 | 0.93 | 1.16 | 1.1 | 0.581 | 0.784 | 0.649
P fixed | 0.371 | 0.522 | 0.727 | 1.19 | 0.981 | 0.423 | 0.701 | 0.977 | 0.946
Q fixed | 0.915 | 0.531 | 0.947 | 1.01 | 0.863 | 1.79 | 0.787 | 1.04 | 0.802
R fixed | 0.903 | 0.554 | 1.37 | 1.05 | 2.06 | 1.65 | 5.46 | 1.32 | 1.44
V fixed | 0.702 | 1.1 | 0.923 | 0.758 | 0.554 | 0.462 | 0.315 | 0.941 | 0.923
W fixed | 1.22 | 1.42 | 1.27 | 1.09 | 0.621 | 0.725 | 0.549 | 0.914 | 1.17
Y fixed | 1.3 | 2.91 | 1.17 | 0.846 | 1.09 | 0.695 | 0.447 | 0.942 | 1.12
pThr fixed | 0.782 | 0.935 | 1.04 | 0.993 | 0.455 | 0.391 | 0.374 | 0.652 | 0.506
pTyr fixed | 0.776 | 7.04 | 1.07 | 0.687 | 0.515 | 0.367 | 0.298 | 0.548 | 0.576

RIPK3, construct: aa1-313 (from UniProt Q9Y572)
relative phosphorylation
Conditions | at +1 | at +2 | at +3 | at +4 | at -1 | at -2 | at -3 | at -4 | at -5
A fixed | 0.854 | 0.673 | 0.422 | 1.03 | 0.762 | 0.87 | 1.02 | 1.03 | 1.16
D fixed | 0.247 | 0.425 | 0.266 | 0.816 | 0.678 | 0.699 | 0.711 | 0.73 | 0.818
E fixed | 0.459 | 0.727 | 0.224 | 0.625 | 0.421 | 0.515 | 0.692 | 0.766 | 0.668
F fixed | 2.07 | 0.902 | 3 | 1.07 | 0.662 | 0.66 | 0.785 | 1.1 | 1.04
G fixed | 0.895 | 0.746 | 0.646 | 1.21 | 0.466 | 1.03 | 1.65 | 1.17 | 1.13
H fixed | 0.695 | 1.3 | 0.615 | 0.944 | 1.28 | 1.29 | 1.19 | 1.05 | 1.22
I fixed | 1.6 | 1.43 | 1.67 | 0.998 | 1.08 | 0.747 | 0.832 | 0.949 | 1.04
K fixed | 1.02 | 1.36 | 0.424 | 1.24 | 2.04 | 0.953 | 1.37 | 1.36 | 1.43
L fixed | 0.935 | 1.61 | 2.54 | 0.991 | 1.27 | 1.2 | 0.922 | 0.873 | 0.912
M fixed | 1.62 | 1.05 | 1.58 | 0.989 | 1.1 | 0.922 | 0.977 | 1.13 | 0.958
N fixed | 0.493 | 0.977 | 0.474 | 0.915 | 1.21 | 1.15 | 0.946 | 1.03 | 0.848
P fixed | 0.148 | 0.548 | 0.253 | 1.22 | 0.783 | 1.73 | 0.992 | 0.862 | 0.894
Q fixed | 1.32 | 1.04 | 0.399 | 0.938 | 0.888 | 0.847 | 0.979 | 0.818 | 0.826
R fixed | 1.76 | 1.31 | 0.669 | 1.15 | 1.73 | 2.22 | 1.48 | 1.23 | 1.12
V fixed | 1.26 | 1.14 | 0.661 | 0.863 | 1.11 | 0.697 | 0.732 | 0.969 | 0.991
W fixed | 0.81 | 0.603 | 1.68 | 1.11 | 0.623 | 0.727 | 0.944 | 0.999 | 0.986
Y fixed | 0.822 | 1.16 | 1.48 | 0.898 | 0.893 | 0.736 | 0.778 | 0.937 | 0.966
pThr fixed | 0.844 | 1.28 | 0.557 | 1.02 | 1.1 | 1.32 | 1.22 | 1.27 | 1.06
pTyr fixed | 0.422 | 0.937 | 0.518 | 0.722 | 0.785 | 0.648 | 0.892 | 0.859 | 0.733
